*: point of attachment. NH(propargyl) = C#CCN*

This data set can be described thus: Circular dichroism measurement of peptide secondary structure. The class given is physicochemical. The following applies: aqueous environments; 208 nm and 222 nm signal; FIG. 1 and FIG. 2. For orientation: Circular dichroism is widely used to follow secondary structure.
On to “Acetyl-Ala-Ala-Asp-Lys-Ala-Ser-Thr-Gln-Ala-Ala-Ile-Asp-Gly-Ala-Thr-Asn-Ala-Val-Asn-Ser-Ala-Ile-Glu-Ala-Gly-Gly-NHCH2CCH (Ac-AADKASTQAAIDGATNAVNSAIEAGG-{NH(propargyl)}; SMILES C#CCNC(=O)CNC(=O)CNC(=O)[C@H](C)NC(=O)[C@H](CCC(=O)O)NC(=O)[C@@H](NC(=O)[C@H](C)NC(=O)[C@H](CO)NC(=O)[C@H](CC(N)=O)NC(=O)[C@@H](NC(=O)[C@H](C)NC(=O)[C@H](CC(N)=O)NC(=O)[C@@H](NC(=O)[C@H](C)NC(=O)CNC(=O)[C@H](CC(=O)O)NC(=O)[C@@H](NC(=O)[C@H](C)NC(=O)[C@H](C)NC(=O)[C@H](CCC(N)=O)NC(=O)[C@@H](NC(=O)[C@H](CO)NC(=O)[C@H](C)NC(=O)[C@H](CCCCN)NC(=O)[C@H](CC(=O)O)NC(=O)[C@H](C)NC(=O)[C@H](C)NC(C)=O)[C@@H](C)O)[C@@H](C)CC)[C@@H](C)O)C(C)C)[C@@H](C)CC) [A2]”, for which the “α-helical structure content by circular dichroism” value was “less optimal for forming α-helical structures in aqueous environments”.
The result for “Acetyl-AADAADKEAAQKALDAATNALNAAIEAANAAGG-NHCH2CCH (Ac-AADAADKEAAQKALDAATNALNAAIEAANAAGG-{NH(propargyl)}; SMILES C#CCNC(=O)CNC(=O)CNC(=O)[C@H](C)NC(=O)[C@H](C)NC(=O)[C@H](CC(N)=O)NC(=O)[C@H](C)NC(=O)[C@H](C)NC(=O)[C@H](CCC(=O)O)NC(=O)[C@@H](NC(=O)[C@H](C)NC(=O)[C@H](C)NC(=O)[C@H](CC(N)=O)NC(=O)[C@H](CC(C)C)NC(=O)[C@H](C)NC(=O)[C@H](CC(N)=O)NC(=O)[C@@H](NC(=O)[C@H](C)NC(=O)[C@H](C)NC(=O)[C@H](CC(=O)O)NC(=O)[C@H](CC(C)C)NC(=O)[C@H](C)NC(=O)[C@H](CCCCN)NC(=O)[C@H](CCC(N)=O)NC(=O)[C@H](C)NC(=O)[C@H](C)NC(=O)[C@H](CCC(=O)O)NC(=O)[C@H](CCCCN)NC(=O)[C@H](CC(=O)O)NC(=O)[C@H](C)NC(=O)[C@H](C)NC(=O)[C@H](CC(=O)O)NC(=O)[C@H](C)NC(=O)[C@H](C)NC(C)=O)[C@@H](C)O)[C@@H](C)CC) [SEQHAS]” reads “More significant improvement of the α-helical content”; that for “Acetyl-AADAADKEAAQKAIDAATNAVNAAIEAANAAGG-NHCH2CCH (Ac-AADAADKEAAQKAIDAATNAVNAAIEAANAAGG-{NH(propargyl)}; SMILES C#CCNC(=O)CNC(=O)CNC(=O)[C@H](C)NC(=O)[C@H](C)NC(=O)[C@H](CC(N)=O)NC(=O)[C@H](C)NC(=O)[C@H](C)NC(=O)[C@H](CCC(=O)O)NC(=O)[C@@H](NC(=O)[C@H](C)NC(=O)[C@H](C)NC(=O)[C@H](CC(N)=O)NC(=O)[C@@H](NC(=O)[C@H](C)NC(=O)[C@H](CC(N)=O)NC(=O)[C@@H](NC(=O)[C@H](C)NC(=O)[C@H](C)NC(=O)[C@H](CC(=O)O)NC(=O)[C@@H](NC(=O)[C@H](C)NC(=O)[C@H](CCCCN)NC(=O)[C@H](CCC(N)=O)NC(=O)[C@H](C)NC(=O)[C@H](C)NC(=O)[C@H](CCC(=O)O)NC(=O)[C@H](CCCCN)NC(=O)[C@H](CC(=O)O)NC(=O)[C@H](C)NC(=O)[C@H](C)NC(=O)[C@H](CC(=O)O)NC(=O)[C@H](C)NC(=O)[C@H](C)NC(C)=O)[C@@H](C)CC)[C@@H](C)O)C(C)C)[C@@H](C)CC) [HA54.1]”, “More significant improvement of the α-helical content”.
Consider “Acetyl-AADAADKEAKQKAIDAATNAVNSAIEAANKAGG-NHCH2CCH (Ac-AADAADKEAKQKAIDAATNAVNSAIEAANKAGG-{NH(propargyl)}; SMILES C#CCNC(=O)CNC(=O)CNC(=O)[C@H](C)NC(=O)[C@H](CCCCN)NC(=O)[C@H](CC(N)=O)NC(=O)[C@H](C)NC(=O)[C@H](C)NC(=O)[C@H](CCC(=O)O)NC(=O)[C@@H](NC(=O)[C@H](C)NC(=O)[C@H](CO)NC(=O)[C@H](CC(N)=O)NC(=O)[C@@H](NC(=O)[C@H](C)NC(=O)[C@H](CC(N)=O)NC(=O)[C@@H](NC(=O)[C@H](C)NC(=O)[C@H](C)NC(=O)[C@H](CC(=O)O)NC(=O)[C@@H](NC(=O)[C@H](C)NC(=O)[C@H](CCCCN)NC(=O)[C@H](CCC(N)=O)NC(=O)[C@H](CCCCN)NC(=O)[C@H](C)NC(=O)[C@H](CCC(=O)O)NC(=O)[C@H](CCCCN)NC(=O)[C@H](CC(=O)O)NC(=O)[C@H](C)NC(=O)[C@H](C)NC(=O)[C@H](CC(=O)O)NC(=O)[C@H](C)NC(=O)[C@H](C)NC(C)=O)[C@@H](C)CC)[C@@H](C)O)C(C)C)[C@@H](C)CC) [HA54.4]”, for which the “α-helical structure content by circular dichroism” value is on record as “More significant improvement of the α-helical content”.

The values are drawn from US20120064110A1.
